Legend:
[1] = system: primary human cell cultures (11 cell types); assay: Custom gene array, 11 human cell types in normoxia or hypoxia for 6 hr and 18 hr; assay type: cell-based;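 for mRNA expression level, #1 HY 18 hr: cell type #1 is adipocyte from subcutaneous adult adipose tissue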;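 for mRNA expression level, #1 HY 6 hr: cell type #1 is adipocyte from subcutaneous adult adipose tissue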;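 for mRNA expression level, #1 NO: cell type #1 is adipocyte from subcutaneous adult adipose tissue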;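 for mRNA expression level, #2 HY 18 hr: cell type #2 is fetal cardiomyocyte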;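 for mRNA expression level, #2 HY 6 hr: cell type #2 is fetal cardiomyocyte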;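 for mRNA expression level, #2 NO: cell type #2 is fetal cardiomyocyte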;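 for mRNA expression level, #3 HY 6 hr: cell type #3 is human umbilical vein endothelial cells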;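 for mRNA expression level, #3 NO: cell type #3 is human umbilical vein endothelial cells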;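 for mRNA expression level, #4 HY 18 hr: cell type #4 is adult dermal fibroblast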;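 for mRNA expression level, #4 HY 6 hr: cell type #4 is adult dermal fibroblast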;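 for mRNA expression level, #4 NO: cell type #4 is adult dermal fibroblast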;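 for mRNA expression level, #5 HY 6 hr: cell type #5 is adult hepatocyte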;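 for mRNA expression level, #5 NO: cell type #5 is adult hepatocyte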;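 for mRNA expression level, #6 HY 6 hr: cell type #6 is blood-derived macrophage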;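 for mRNA expression level, #6 NO: cell type #6 is blood-derived macrophage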
Summary of the method: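 Values are each gene's expression relative to its median over all cell types and conditions, after per-array normalisation to control genes and merging of replicate arrays. Cells were 11 human types, mostly unmodified primary cultures, kept in normoxia or exposed to hypoxia for 6 hr or 18 hr.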

[2] = system: human breast and ovary tumors; assay: Custom gene array, breast and ovary tumors versus normal adjacent tissue; settings: Table 18
Excerpt: A study has been performed to examine the expression of these genes in a selection of breast and ovary tumors, comparing expression with normal adjacent tissue from the same patient. There is expected to be a large degree of variation between different patients, and the study here contains only 5 patients with a range of diagnoses.
Patients are designated as Letters:
E: person. Diagnosis: ovarian adenocarcinoma. Normal ovarian tissue derived from an age-matched separate individual.
: person. Diagnosis: poorly differentiated adenocarcinoma. Normal ovarian tissue derived from the same individual.
G: person. Diagnosis: moderately-differentiated adenocarcinoma. Normal ovarian tissue derived from the same individual.
H: person. Diagnosis: invasive ductal carcinoma. Normnal breast tissue derived from the same individual.
K: person. Diagnosis: invasive ductal carcinoma. Normal breast tissue derived from the same individual.
Data normalisation was done per-chip to correct for differences in labelling and hybridization efficiency. Per-gene normalisation was done such that the expression values of each gene are relative to the median value of that gene throughout the series of samples. By comparing the expression values under normal (nor) and tumor (turn) for a single patient, differences in expression between the normal and malignant tissue of that patient can be inferred.

[3] = system: human macrophages; assay: Custom gene array, macrophages with no cytokines, IL-10 or LPS + IFN, in normoxia and hypoxia; assay type: cell-based; settings: for mRNA EXPRESSION (experimental condition) #1: #1 no cytokines/normoxia; for mRNA EXPRESSION (experimental condition) #2: #2 no cytokines/hypoxia; for mRNA EXPRESSION (experimental condition) #3: #3 IL-10/normoxia; for mRNA EXPRESSION (experimental condition) #4: #4 IL-10/hypoxia; for mRNA EXPRESSION (experimental condition) #5: #5 LPS/IFN/normoxia; for mRNA EXPRESSION (experimental condition) #6: #6 LPS/IFN/hypoxia
Method: Macrophages were derived and cultured as described elsewhere in the specification. A total of 6 experimental conditions were analysed, as shown below. Where cells were treated with cytokines or hypoxia (0.1% oxygen), this was for 6 hr. Lipopolysaccharide (LPS) (from E.coli 026:B6; Sigma), gamma Interferon (IFN) and Interleukin-10 (IL-10) were all used at a final concentration of 100 ng/ml. The effect of gamma Interferon and Lipopolysaccharide is to activate macrophages, with a Th1 biased phenotype, as found in many inflammatory conditions. Interleukin-10 is a Th2 cytokine and de-activates macrophages, and suppresses their effector functions.

[4] = Table 16, referenced to median of the gene over 6 conditions
[5] = Table 15, referenced to the median value of that gene throughout all 6 conditions

B1: p1E19 (nucleic acid, listed as Homo Sapiens)
DNA: TTTTTTTTCCTAGTTTCATTAAAGATGGAGTTCATATTTGTTTCTCATATTAATTTTTAAGACAAAAAAAAGCAGAACTGTTTTCACCCATTAAGTTAAAAACTGGAATTTTACCTTTCCAAACTTATTTCCTACCTTGCCCCTTTTCATGTTAATACCATGAACTATTCAGTAATTCTCTTCAAGCTCCATAATTTCCTACTTTCTACTTTTGCTCATTATTTCCATTCCAAGGGAAAGTTCTGTGTGCGTGTCTATTTCTATGTTCAAATTACACCTGTAAGATCCAACTCACAGGGCCATTGCCCTCTAGGGGTCTCTCCTGGATCCACTTCAACAGGAGGTAATTTTATCTNCACCGGATACCATTTCCTCCTTGGACACTTACCTCTTTTANGGGGACTCCCGAGGGTTGAGGGGGNG
modifications: EST array clone; misc_feature 356, 397, 422: n = A,T,C or G
- mRNA expression level, #1 HY 6 hr ([1]; cell type #1, hypoxia 6 hr): 0.65
- mRNA expression level, #1 HY 18 hr ([1]; cell type #1, hypoxia 18 hr): 0.62
- mRNA expression level, #1 NO ([1]; cell type #1, normoxia): 0.79
- mRNA expression level, #2 HY 6 hr ([1]; cell type #2, hypoxia 6 hr): 2.37
- mRNA expression level, #2 HY 18 hr ([1]; cell type #2, hypoxia 18 hr): 2.99
- mRNA expression level, #2 NO ([1]; cell type #2, normoxia): 2.64
- mRNA expression level, #3 HY 6 hr ([1]; cell type #3, hypoxia 6 hr): 1.61
- mRNA expression level, #3 HY 18 hr ([1]; cell type #3, hypoxia 18 hr): 1.77
- mRNA expression level, #3 NO ([1]; cell type #3, normoxia): 2.10
- mRNA expression level, #4 HY 6 hr ([1]; cell type #4, hypoxia 6 hr): 0.40
- mRNA expression level, #4 HY 18 hr ([1]; cell type #4, hypoxia 18 hr): 0.64
- mRNA expression level, #4 NO ([1]; cell type #4, normoxia): 0.61
- mRNA expression level, #5 HY 6 hr ([1]; cell type #5, hypoxia 6 hr): 0.89
- mRNA expression level, #5 NO ([1]; cell type #5, normoxia): 0.42
- mRNA expression level, #6 HY 6 hr ([1]; cell type #6, hypoxia 6 hr): 0.76
- #6 HY 18 hr (mRNA expression level) ([1]; cell type #6, hypoxia 18 hr): 1.08
- mRNA expression level, #6 NO ([1]; cell type #6, normoxia): 0.68
- #7 HY 6 hr (mRNA expression level) ([1]; cell type #7, hypoxia 6 hr): 0.50
- #7 HY 18 hr (mRNA expression level) ([1]; cell type #7, hypoxia 18 hr): 0.32
- #7 NO (mRNA expression level) ([1]; cell type #7, normoxia): 0.41
- #8 HY 6 hr (mRNA expression level) ([1]; cell type #8, hypoxia 6 hr): 0.90
- #8 HY 18 hr (mRNA expression level) ([1]; cell type #8, hypoxia 18 hr): 0.47
- #8 NO (mRNA expression level) ([1]; cell type #8, normoxia): 0.38
- #9 HY 6 hr (mRNA expression level) ([1]; cell type #9, hypoxia 6 hr): 1.11
- #9 HY 18 hr (mRNA expression level) ([1]; cell type #9, hypoxia 18 hr): 1.17
- #9 NO (mRNA expression level) ([1]; cell type #9, normoxia): 1.30
- #10 HY 6 hr (mRNA expression level) ([1]; cell type #10, hypoxia 6 hr): 1.52
- #10 HY 18 hr (mRNA expression level) ([1]; cell type #10, hypoxia 18 hr): 1.39
- #10 NO (mRNA expression level) ([1]; cell type #10, normoxia): 1.29
- #11 HY 6 hr (mRNA expression level) ([1]; cell type #11, hypoxia 6 hr): 1.69
- #11 HY 18 hr (mRNA expression level) ([1]; cell type #11, hypoxia 18 hr): 1.39
- #11 NO (mRNA expression level) ([1]; cell type #11, normoxia): 1.14
- HIGHEST FOLD CHANGE IN HYPOXIA (hr hypoxia + cell type) ([1]; hypoxia/normoxia induction ratio, 6 hr hepatocyte): 2.13 (6 hr hepatocyte) fold
- gene expression level on custom gene array, Breast nor H ([2]; breast, normal adjacent tissue, patient H): 2.38
- gene expression level on custom gene array, Breast nor K ([2]; breast, normal adjacent tissue, patient K): 1.19
- gene expression level on custom gene array, Breast tum H ([2]; breast, tumor tissue, patient H): 2.49
- gene expression level on custom gene array, Breast tum K ([2]; breast, tumor tissue, patient K): 1.78
- gene expression level on custom gene array, Ovary nor E ([2]; ovary, normal adjacent tissue, patient E): 1.00
- gene expression level on custom gene array, Ovary nor F ([2]; ovary, normal adjacent tissue, patient F): 1.38
- gene expression level on custom gene array, Ovary nor G ([2]; ovary, normal adjacent tissue, patient G): 0.20
- gene expression level on custom gene array, Ovary tum E ([2]; ovary, tumor tissue, patient E): 2.04
- gene expression level on custom gene array, Ovary tum F ([2]; ovary, tumor tissue, patient F): 1.30
- gene expression level on custom gene array, Ovary tum G ([2]; ovary, tumor tissue, patient G): 1.19

B2: p1G20 (nucleic acid, listed as Homo Sapiens)
DNA: GAGTAGGAGTGCCTCCTTGTCTGCACTGCTGGTATGGGGTTAGGCCAGGTAGGACATTCCAGAGGGGCTTCTGAAAACCAAGAGTCCCTGGGGAAAGGGAACAGAGTAAGGCAGGCCTTGTTCTCACTGCCCTCTAAGGGAACTTGGTCACTCGGCACTTTTAAGCCTCAGTTTCTCCAGTTCAATAATAAGGACAAGAGCTTTTCCCATGCATTCTCTTTCCCCGGGAAAGTTGACTGAGGTGACCAGTAATAGAATTGAAAAGGGAGAGTGTCTTCAGTGCAATGTGGCATCCTGGATTGGGTCTTGGAACAAAAACAGGACATTAGTGGGAAAATTGGAAATCTGAAAAAAGTCTGAATTTTAGTTAATATACCAATTTCAGTCTCTTGGTTTTGACAGATGTACCATGGTGATGTAAGATGTTGACCTTGGGGTAGGCTGGGTGAAGGGTATACAGGAACTCTTTGTACTATCTCTGCAACTTCTCTGTAAATCTAGTATCATTCCAAAATAAAAGTTTATTTAATTTAAAAAAAAAA
- HIGHEST FOLD CHANGE IN HYPOXIA (hr hypoxia + cell type) ([1]; DOWN, 18 hr cardiomyocyte): 4.17 DOWN (18 hr cardiomyocyte) ^ fold
- mRNA expression level ([1]; cell type #1, HY (hypoxia) 6 hr): 0.48
- mRNA expression level ([1]; cell type #1, HY (hypoxia) 18 hr): 0.50
- mRNA expression level ([1]; cell type #1, NO (normoxia)): 0.74
- mRNA expression level ([1]; cell type #2, HY (hypoxia) 6 hr): 0.66
- mRNA expression level ([1]; cell type #2, HY (hypoxia) 18 hr): 0.36
- mRNA expression level ([1]; cell type #2, NO (normoxia)): 1.54
- mRNA expression level ([1]; cell type #3, HY (hypoxia) 6 hr): 1.26
- mRNA expression level ([1]; cell type #3, HY (hypoxia) 18 hr): 1.03
- mRNA expression level ([1]; cell type #3, NO (normoxia)): 1.64
- mRNA expression level ([1]; cell type #4, HY (hypoxia) 6 hr): 0.84
- mRNA expression level ([1]; cell type #4, HY (hypoxia) 18 hr): 0.84
- mRNA expression level ([1]; cell type #4, NO (normoxia)): 0.99
- mRNA expression level ([1]; cell type #5, HY (hypoxia) 6 hr): 1.19
- mRNA expression level ([1]; cell type #5, NO (normoxia)): 1.34
- mRNA expression level ([1]; cell type #6, HY (hypoxia) 6 hr): 0.98
- mRNA expression level ([1]; cell type #6, NO (normoxia)): 1.29
- mRNA EXPRESSION (experimental condition) #1 [3, 4]: 1.45
- mRNA EXPRESSION (experimental condition) #2 [3, 4]: 0.73
- mRNA EXPRESSION (experimental condition) #3 [3, 4]: 1.60
- mRNA EXPRESSION (experimental condition) #4 [3, 4]: 1.12
- mRNA EXPRESSION (experimental condition) #5 [3, 4]: 0.57
- mRNA EXPRESSION (experimental condition) #6 [3, 4]: 0.44

B3: p2L23 (nucleic acid, listed as Homo Sapiens)
DNA: GGAGCTGTTTACCCCCACTCTAATAGGGGTTCAATATAAAAAGCCGGCAGAGAGCTGTCCAAGTCAGACGCGCCTCTGCATCTGCGCCAGGCGAACGGGTCCTGCGCCTCCTGCAGTCCCAGCTCTCCACCACCGCCGCGTGCGCCTGCAGACGCTCCGCTCGCTGCCTTCTCTCCTGGCAGGCGCTGCCTTTTCTCCCCGTTAAAGGGCACTTGGGCTGAAGGATCGCTTTGAGATCTGAGGAACCCGCAGCGCTTTGAGGGACCTGAAGCTGTTTTTCTTCGTTTTCCTTTGGGTTCAGTTTGAACGGGAGGTTTTTGATCCCTTTTTTTCAGAATGGATTATTTGCTCATGATTTTCTCTCTGCTGTTTGTGGCTTGCCAAGGAGCTCCAGAAACAGCAGTCTTAGGCGCTGAGCTCAGCGCGGTGGGTGAGAACGGCGGGGAGAAACCCACTCCCAGTCCACCCTGGCGGCTCCGCCGGTCCAAGCGCTGCTCCTGCTCGTCCCTGATGGATAAAGAGTGTGTCTACTTCTGCCACCTGGACATCATTTGGGTCAACACTCCCGAGCACGTTGTTCCGTATGGACTTGGAAGCCCTAGGTCCAAGAGAGCCTTGGAGAATTTACTTCCCACAAAGGCAACAGACCGTGAGAATAGATGCCAATGTGCTAGCCAAAAAGACAAGAAGTGCTGGAATTTTTGCCAAGCAGGAAAAGAACTCAGGGCTGAAGACATTATGGAGAAAGACTGGAATAATCATAAGAAAGGAAAAGACTGTTCCAAGCTTGGGAAAAAGTGTATTTATCAGCAGTTAGTGAGAGGAAGAAAAATCAGAAGAAGTTCAGAGGAACACCTAAGACAAACCAGGTCGGAGACCATGAGAAACAGCGTCAAATCATCTTTTCATGATCCCAAGCTGAAAGGCAAGCCCTCCAGAGAGCGTTATGTGACCCACAACCGAGCACATTGGTGACAGACTTCGGGGCCTGTCTGAAGCCATAGCCTCCACGGAGAGCCCTGTGGCCGACTCTGCACTCTCCACCCTGGCTGGGATCAGAGCAGGAGCATCCTCTGCTGGTTCCTGACTGGCAAAGGACCAGCGTCCTCGTTCAAAACATTCCAAGAAAGGTTAAGGAGTTCCCCCAACCATCTTCACTGGCTTCCATCAGTGGTAACTGCTTTGGTCTCTTCTTTCATCTGGGGATGACAATGGACCTCTCAGCAGAAACACACAGTCACATTCGAATTC
- mRNA EXPRESSION (experimental condition) #1 [3, 5]: 1.02
- mRNA EXPRESSION (experimental condition) #2 [3, 5]: 0.62
- mRNA EXPRESSION (experimental condition) #3 [3, 5]: 0.74
- mRNA EXPRESSION (experimental condition) #4 [3, 5]: 0.50
- mRNA EXPRESSION (experimental condition) #5 [3, 5]: 11.4
- mRNA EXPRESSION (experimental condition) #6 [3, 5]: 10.1

Reference: patent US20030203372A1, “Analysis method” (priority 2000, published 2003)
